Numbering of substitutions follows the chain as printed. Names may count otherwise.

The target of the assay is T1, TNFR1 (Homo sapiens, UniProt P19438).
T1 chain: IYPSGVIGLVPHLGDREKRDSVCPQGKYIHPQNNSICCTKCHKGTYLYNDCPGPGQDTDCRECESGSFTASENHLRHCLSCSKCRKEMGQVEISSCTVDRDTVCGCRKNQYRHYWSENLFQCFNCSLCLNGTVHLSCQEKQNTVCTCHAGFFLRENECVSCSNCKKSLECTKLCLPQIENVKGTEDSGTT
Description: yeast display SC50.

B1: L26R (designed binder)
chain: MTLQELLREEALRRAEAEAFRYALERLAEKFPEQKEYLLDLAEEIESQIRSLSGVDVEDVRKFLDKEWAWVKELLAEHPAELAEVEAARAARLAELRAEVEAKVAA
On to B1, for which the “apparent Kd (screen)” value worked out at 0.446 nM.

B2: Q4K (designed binder)
chain: B1 chain with Q4K, R26L
As for B2, the “apparent Kd (screen)” value is 0.49 nM.

B3: L75E (designed binder)
chain: B1 chain with R26L, L75E
B3: the “apparent Kd (screen)” value is 0.653 nM.

B4: L64V (designed binder)
chain: B1 chain with R26L, L64V
Regarding B4, the “apparent Kd (screen)” value is 13.8 nM.

B5: E9W (designed binder)
chain: B1 chain with E9W, R26L
In the case of B5, the “apparent Kd (screen)” value came to 0.405 nM.

B6: V60P (designed binder)
chain: B1 chain with R26L, V60P
Consider B6, for which the “apparent Kd (screen)” value amounted to 12.5 nM.

B7: A98R (designed binder)
chain: B1 chain with R26L, A98R
With B7, the “apparent Kd (screen)” value came to 0.653 nM.

B8: A80S (designed binder)
chain: B1 chain with R26L, A80S
On to B8, for which the “apparent Kd (screen)” value is 0.869 nM.

B9: E86D (designed binder)
chain: B1 chain with R26L, E86D
With B9, the “apparent Kd (screen)” value was found to be 0.446 nM.

B10: L38H (designed binder)
chain: B1 chain with R26L, L38H
On to B10, for which the “apparent Kd (screen)” value was determined as 0.79 nM.

B11: E86A (designed binder)
chain: B1 chain with R26L, E86A
Take B11: the “apparent Kd (screen)” value worked out at 0.956 nM.

B12: R21D (designed binder)
chain: B1 chain with R21D, R26L
Turning to B12, the “apparent Kd (screen)” value was 0.539 nM.

B13: S51H (designed binder)
chain: B1 chain with R26L, S51H
Regarding B13, the “apparent Kd (screen)” value stood at 0.304 nM.

B14: K66E (designed binder)
chain: B1 chain with R26L, K66E
For B14, the “apparent Kd (screen)” value was 0.869 nM.

B15: E33F (designed binder)
chain: B1 chain with R26L, E33F
For B15, the “apparent Kd (screen)” value was found to be 0.956 nM.

B16: L3A (designed binder)
chain: B1 chain with L3A, R26L
As to B16, the “apparent Kd (screen)” value is 2.73 nM.

B17: K30S (designed binder)
chain: B1 chain with R26L, K30S
For the molecule B17, the “apparent Kd (screen)” value is 0.718 nM.

B18: L74R (designed binder)
chain: B1 chain with R26L, L74R
B18: the “apparent Kd (screen)” value was determined as 12.5 nM.

B19: E36L (designed binder)
chain: B1 chain with R26L, E36L
As to B19, the “apparent Kd (screen)” value is 0.539 nM.

B20: Y37K (designed binder)
chain: B1 chain with R26L, Y37K
In the case of B20, the “apparent Kd (screen)” value was 0.539 nM.

B21: Q34W (designed binder)
chain: B1 chain with R26L, Q34W
Consider B21, for which the “apparent Kd (screen)” value was 1.69 nM.

B22: R8T (designed binder)
chain: B1 chain with R8T, R26L
For B22, the “apparent Kd (screen)” value was 0.79 nM.

B23: R21Y (designed binder)
chain: B1 chain with R21Y, R26L
For the molecule B23, the “apparent Kd (screen)” value is 0.49 nM.

B24: G54H (designed binder)
chain: B1 chain with R26L, G54H
As to B24, the “apparent Kd (screen)” value was found to be 11.4 nM.

B25: E43Q (designed binder)
chain: B1 chain with R26L, E43Q
Turning to B25, the “apparent Kd (screen)” value worked out at 0.956 nM.

B26: V104T (designed binder)
chain: B1 chain with R26L, V104T
For B26, the “apparent Kd (screen)” value came to 0.956 nM.

B27: F20S (designed binder)
chain: B1 chain with F20S, R26L
For B27, the “apparent Kd (screen)” value was 1.05 nM.

B28: L52N (designed binder)
chain: B1 chain with R26L, L52N
Regarding B28, the “apparent Kd (screen)” value stood at 2.73 nM.

B29: I49H (designed binder)
chain: B1 chain with R26L, I49H
Turning to B29, the “apparent Kd (screen)” value came to 0.304 nM.

B30: A19E (designed binder)
chain: B1 chain with A19E, R26L
On to B30, for which the “apparent Kd (screen)” value was 0.956 nM.

B31: L93P (designed binder)
chain: B1 chain with R26L, L93P
In the case of B31, the “apparent Kd (screen)” value came to 1.69 nM.

B32: A11L (designed binder)
chain: B1 chain with A11L, R26L
Turning to B32, the “apparent Kd (screen)” value was 2.05 nM.

B33: A87H (designed binder)
chain: B1 chain with R26L, A87H
In the case of B33, the “apparent Kd (screen)” value is 0.49 nM.

B34: A91V (designed binder)
chain: B1 chain with R26L, A91V
For B34, the “apparent Kd (screen)” value was 0.539 nM.

B35: K30V (designed binder)
chain: B1 chain with R26L, K30V
As for B35, the “apparent Kd (screen)” value turned out to be 0.446 nM.

B36: E9G (designed binder)
chain: B1 chain with E9G, R26L
As for B36, the “apparent Kd (screen)” value came to 1.69 nM.

B37: E29R (designed binder)
chain: B1 chain with R26L, E29R
For the molecule B37, the “apparent Kd (screen)” value was 0.49 nM.

B38: A15F (designed binder)
chain: B1 chain with A15F, R26L
Turning to B38, the “apparent Kd (screen)” value was 0.653 nM.

B39: E25G (designed binder)
chain: B1 chain with E25G, R26L
For the molecule B39, the “apparent Kd (screen)” value was determined as 0.49 nM.

B40: E101F (designed binder)
chain: B1 chain with R26L, E101F
In the case of B40, the “apparent Kd (screen)” value stood at 0.593 nM.

B41: L27R (designed binder)
chain: B1 chain with R26L, L27R
On to B41, for which the “apparent Kd (screen)” value came out at 0.49 nM.

B42: R21P (designed binder)
chain: B1 chain with R21P, R26L
For the molecule B42, the “apparent Kd (screen)” value worked out at 0.49 nM.

B43: I45W (designed binder)
chain: B1 chain with R26L, I45W
On to B43, for which the “apparent Kd (screen)” value was 0.718 nM.

B44: L3N (designed binder)
chain: B1 chain with L3N, R26L
Take B44: the “apparent Kd (screen)” value came out at 24.4 nM.

B45: E33R (designed binder)
chain: B1 chain with R26L, E33R
As for B45, the “apparent Kd (screen)” value turned out to be 0.49 nM.

B46: K30R (designed binder)
chain: B1 chain with R26L, K30R
With B46, the “apparent Kd (screen)” value came to 0.593 nM.

B47: E86W (designed binder)
chain: B1 chain with R26L, E86W
B47: the “apparent Kd (screen)” value was found to be 2.73 nM.

B48: K66L (designed binder)
chain: B1 chain with R26L, K66L
With B48, the “apparent Kd (screen)” value amounted to 0.49 nM.

B49: A91D (designed binder)
chain: B1 chain with R26L, A91D
Regarding B49, the “apparent Kd (screen)” value came out at 0.49 nM.

B50: A17T (designed binder)
chain: B1 chain with A17T, R26L
In the case of B50, the “apparent Kd (screen)” value amounted to 0.446 nM.

B51: E9V (designed binder)
chain: B1 chain with E9V, R26L
With B51, the “apparent Kd (screen)” value turned out to be 0.869 nM.

B52: F63K (designed binder)
chain: B1 chain with R26L, F63K
Take B52: the “apparent Kd (screen)” value was determined as 5.31 nM.

B53: Q4M (designed binder)
chain: B1 chain with Q4M, R26L
For the molecule B53, the “apparent Kd (screen)” value is 0.49 nM.

B54: Y22A (designed binder)
chain: B1 chain with Y22A, R26L
Take B54: the “apparent Kd (screen)” value worked out at 0.79 nM.

B55: L12T (designed binder)
chain: B1 chain with L12T, R26L
Regarding B55, the “apparent Kd (screen)” value was determined as 0.718 nM.

The values above are taken from paper PMC12416549 (2024).
